Reference: patent US20240132548A1 (Janssen / Centocor, published 2024)

What was measured:
Test in all cases: BLI (Octet), biotinylated mAb on streptavidin sensors, culture supernatant
[1] = molecular target: T1, RSV180917 (I152M + K226M + D486N + S215P + L203I + P101Q + D489Y + T357R + N371Y) (respiratory syncytial virus, subgroup B …, UniProt O36634 26-109)
T1 construct: also called RSV181917
T1 chain 1: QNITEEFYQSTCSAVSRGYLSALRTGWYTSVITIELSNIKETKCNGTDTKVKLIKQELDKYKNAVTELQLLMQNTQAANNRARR
T1 chain 2: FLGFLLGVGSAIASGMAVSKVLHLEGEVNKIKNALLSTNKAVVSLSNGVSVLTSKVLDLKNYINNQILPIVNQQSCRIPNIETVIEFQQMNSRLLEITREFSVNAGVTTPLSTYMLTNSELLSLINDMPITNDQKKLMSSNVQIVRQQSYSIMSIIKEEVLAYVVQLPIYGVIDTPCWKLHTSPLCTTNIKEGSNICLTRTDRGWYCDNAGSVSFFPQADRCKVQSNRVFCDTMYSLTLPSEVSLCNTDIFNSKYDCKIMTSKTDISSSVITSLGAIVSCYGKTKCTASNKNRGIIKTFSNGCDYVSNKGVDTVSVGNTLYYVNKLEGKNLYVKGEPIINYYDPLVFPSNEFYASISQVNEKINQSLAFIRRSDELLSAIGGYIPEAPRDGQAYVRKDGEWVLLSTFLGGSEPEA
Experimental: (§1) Quantitative Octet (BioLayer Interferometry) was used for measuring protein concentration in the supernatants at day of harvest and after 7 or 30 days storage at 4° C. CR9501 (an antibody specifically recognizing pre-fusion RSV F protein, which comprises the variable regions of the antibodies 58C5 as described in WO2012/006596) and CR9506 (recognizing pre-fusion and post-fusion RSV F protein and comprising a heavy chain variable region comprising SEQ ID NO: 21, and a light chain variable region comprising SEQ ID NO: 22) were biotinylated by standard protocols and immobilized on Streptavidin biosensors (ForteBio, Portsmouth, UK).
(§2) Afterwards, the coated biosensors were blocked in mock cell culture supernatant. A quantitative experiment was performed as follows: temperature 30° C., shaking speed 1000 rpm, time of the assay 300 sec. The concentration of the protein was calculated using a standard curve. The standard curve was prepared for each coated antibody CR9501 and CR9506 using the pre-fusion RSV FA protein (SEQ ID NO: 19; described previously in WO17174568) diluted in mock medium. […] The data analysis was done using the ForteBio Data Analysis 10.0.1.6 software (ForteBio).

[2] = molecular target: T2, RSV181181 (I152M + K226M + D486N + S215P + P101Q + D489Y) (respiratory syncytial virus, subgroup B …, UniProt O36634 26-109; P13843 137-540)
T2 chain 1: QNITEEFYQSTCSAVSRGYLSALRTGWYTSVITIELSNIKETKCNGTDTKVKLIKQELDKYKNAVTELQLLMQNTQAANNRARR
T2 chain 2: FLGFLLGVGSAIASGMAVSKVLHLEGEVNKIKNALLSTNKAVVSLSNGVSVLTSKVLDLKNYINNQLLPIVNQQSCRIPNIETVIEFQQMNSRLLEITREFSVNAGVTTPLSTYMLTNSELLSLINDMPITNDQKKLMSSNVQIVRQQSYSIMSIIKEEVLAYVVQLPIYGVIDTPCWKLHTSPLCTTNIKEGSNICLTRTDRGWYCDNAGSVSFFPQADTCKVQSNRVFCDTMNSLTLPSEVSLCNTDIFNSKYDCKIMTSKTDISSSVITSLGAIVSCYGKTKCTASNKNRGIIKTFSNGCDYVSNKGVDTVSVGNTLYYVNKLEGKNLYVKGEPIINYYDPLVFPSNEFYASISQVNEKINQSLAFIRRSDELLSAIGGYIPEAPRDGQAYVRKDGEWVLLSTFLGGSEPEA
Experimental: as §1, §2

[3] = molecular target: T3, RSV181179 (I152M + K226M + D486N) (respiratory syncytial virus, subgroup B …, UniProt O36634 26-109; P13843 137-540)
T3 construct: Measured in crude culture supernatant, no furin co-transfection
T3 chain 1: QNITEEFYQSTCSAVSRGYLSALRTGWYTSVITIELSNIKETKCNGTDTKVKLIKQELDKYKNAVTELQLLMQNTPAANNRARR
T3 chain 2: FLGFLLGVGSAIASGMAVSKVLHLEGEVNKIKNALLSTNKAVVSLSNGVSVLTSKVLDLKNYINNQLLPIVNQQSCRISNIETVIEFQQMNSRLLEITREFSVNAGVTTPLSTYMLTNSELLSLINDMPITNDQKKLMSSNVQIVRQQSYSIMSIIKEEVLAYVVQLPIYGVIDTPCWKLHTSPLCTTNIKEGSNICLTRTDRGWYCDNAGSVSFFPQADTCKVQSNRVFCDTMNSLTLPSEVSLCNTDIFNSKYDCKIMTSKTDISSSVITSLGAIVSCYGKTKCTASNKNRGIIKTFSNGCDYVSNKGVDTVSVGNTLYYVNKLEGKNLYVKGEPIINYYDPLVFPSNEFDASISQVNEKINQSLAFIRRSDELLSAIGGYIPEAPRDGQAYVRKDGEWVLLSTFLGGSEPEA
Experimental: as §1, §2

[4] = molecular target: T4, RSV181182 (I152M + K226M + D486N + S215P + P101Q + D489Y + T357R + N371Y) (respiratory syncytial virus, subgroup B …, UniProt O36634 26-109; P13843 137-540)
T4 chain 1: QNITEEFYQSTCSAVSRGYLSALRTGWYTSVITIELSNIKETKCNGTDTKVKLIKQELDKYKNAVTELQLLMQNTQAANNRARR
T4 chain 2: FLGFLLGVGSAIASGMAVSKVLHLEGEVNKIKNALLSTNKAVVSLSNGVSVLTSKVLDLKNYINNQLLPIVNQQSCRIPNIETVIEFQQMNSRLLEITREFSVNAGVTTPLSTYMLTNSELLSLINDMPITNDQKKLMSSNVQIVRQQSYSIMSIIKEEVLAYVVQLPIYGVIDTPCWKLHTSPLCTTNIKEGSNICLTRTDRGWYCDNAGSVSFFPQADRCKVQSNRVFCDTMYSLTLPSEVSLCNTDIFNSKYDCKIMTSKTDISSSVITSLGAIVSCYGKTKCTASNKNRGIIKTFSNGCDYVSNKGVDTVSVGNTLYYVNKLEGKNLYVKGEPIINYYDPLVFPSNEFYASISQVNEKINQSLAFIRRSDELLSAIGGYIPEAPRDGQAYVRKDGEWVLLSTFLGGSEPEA
Experimental: as §1, §2

Measured: binding result

B1: CR9506 (antibody, human IgG1, kappa, V domains shown)
VH: EVQLVQSGAEVKKPGSSVKVSCKASGGTFSRSLITWVRQAPGQGLEWMGEISLVFGSAKNAQKFQGRVTITADESTSTAHMEMISLKHEDTAVYYCAAHQYGSGTHNNFWDESELRFDLWGQGTLVTVSS
VL: DIVMTQSPSSLSASVGDRVTIACRASQSIGTYLNWYQQKPGKAPKLLIYAASSLQSGVPSRFSGSGSGTHFTLAISSLQAEDFATYSCQQSYTIPYTFGQGTKLEIKR
notes: Biotinylated for Octet; coated and also used HRP-labelled as detection antibody in the ELISA
binds: all assays above
